Numbering of substitutions follows the chain as printed. Blank lines part the entries; values can stand above or below the binder they belong to.
Molecular target: human Claudin18.2 (human)
Assay: cell-based or functional assay

B1: 414H6G2 (antibody, V domains shown)
VH: DVQLVESGGGLVQPGGSRKLSCAASGFTFSGFGMHWIRQTAEKGLEWVAYISSGSRPIYYADTVQGRFTISRDNPKNTLFLQMTSLRSEDTAMYFCARFYYGNSFDHWGQGTLVTVSA
VL: DIVMTQSPSFLTVTAGEKVTMSCKSSQSLLNSGNQKNYLTWYQQKPGQPPKLLIYWASTRESGVPDRFTGSGSGTDFTLTISSVQAEDLALYYCQNAYSFPLTFGAGTKLELK
CDC % Relative activity: 678%
CDC EC50: 0.402 µg/mL

B2: 418G6A5 (antibody, V domains shown)
VH: DVQLVESGGGLVQPGGSRKLSCVASGFTFSSFGMHWVRQAPEKGLEWVAYISSGSSPMYYADTVKGRFTISRDNPKNTLFLQMTSLRSEDTAMYFCARIYYGNSFAYWGQGTLVTVSA
VL: B1 VL with F10S, L91V, F100Y
CDC % Relative activity: 207%
CDC EC50: 0.83 µg/mL

B3: 418D2F9 (antibody, V domains shown)
VH: B2 VH with V23A, S52N, S53T, P57T, M58I, F95Y, A106V
VL: B1 VL with F10S, L91V, A97D, F100Y
CDC % Relative activity: 236%
CDC EC50: 0.73 µg/mL

B5: 203A6C9 (antibody, V domains shown)
VH: QVQLKQSGPGLVQPSQSLSITCTVSGFSLTRYGVHWVRQSPGKGLEWLGVIWSGGNTDYNAAFISRLNIRKDNSKSQVFFKMNSLKPNDTAIYYCARAAYFGNSFDYWGQGTTLTVSS
VL: B1 VL with F10S, T12P, E61D, L91V, A97N, S99I, F100Y
CDC % Relative activity: 600%
CDC EC50: 0.319 µg/mL

B6: 418B8B10 (antibody, V domains shown)
VH: B2 VH with V23A, M58I, A61T, I99F, A106D, Y107H
VL: B1 VL with F10S, T20S, L30F, S32R, N37S, K45R, L91V, A97N, S99I, F100Y
CDC % Relative activity: 30.8%
CDC EC50: 5.6 µg/mL

B7: 416F12F3 (antibody, V domains shown)
VH: B2 VH with V23A, P57T, M58I, D62H, T63S, R87G, F95Y, I99F
VL: B1 VL with F10S, M21L, L52M, L91V, S99T, F100Y, K109R
CDC % Relative activity: 220%
CDC EC50: 0.784 µg/mL

B9: 419A5F3 (antibody, V domains shown)
VH: B1 VH with A41P, G54D, Q65K, A97G
VL: B1 VL with M21L, K24R, K36R, L89R, A106T, K113R
CDC % Relative activity: 61.7%
CDC EC50: 2.79 µg/mL

B11: 417A6F11 (antibody, V domains shown)
VH: EVQLQQSGPELVKPGASMKISCKASGYSFTGYTMNWVKQSHGKNLEWIGLINPYNGGTSYNQKFKGKATLTVDKSSSTAYMELLSLTSEDSAVYYCARGDYWGQGTTLTVSS
VL: DIVMTQSPSSLTVTAGEKVTMSCKSSQSLLNSGNQKNYLTWYQQKPGQPPKLLIYWASTRESGVPDRFTGSGSGTDFTLTISSVQAEDLAVYYCQNDYSYPTFGAGTKLELK
CDC % Relative activity: 440%
CDC EC50: 0.392 µg/mL

Now from value to binder:

CDC % Relative activity: 91.5%
CDC EC50: 1.88 µg/mL
B4: 419A10D4 (antibody, V domains shown)
VH: B1 VH with A41P, Q65K
VL: B1 VL with K36R, I81V

CDC % Relative activity: 78.3%
CDC EC50: 2.2 µg/mL
B8: 420D5H5 (antibody, V domains shown)
VH: B1 VH with F29L, A41P, A61V, Q65E, A118S
VL: B1 VL with S82R, S83G

CDC % Relative activity: 349%
CDC EC50: 0.494 µg/mL
B10: 419B5G9 (antibody, V domains shown)
VH: DVQLVESGGGLVQPGGSRKLSCAASGFTFSTFGMHWVRQAPEKGLEWVAYISGGSTTIFYADTVKGRFTISRDNPKNTLFLQMTSVRSEDTAMYYCARFYYGNSFAYWGPGTLVTVST
VL: B1 VL with F10S, L52M, L91V, F100Y

Source: patent US20220073643A1 (NANJING GENSCRIPT BIOTECH, published 2022)
